Data published in publication PMC4660580, “Mode of interaction of the Gαo subunit of heterotrimeric G proteins with the GoLoco1 motif of Drosophila Pins is determined by guanine nucleotides” (Bioscience Reports, 2015).
Ends that are not written are not given here. Peptide text beside a SMILES is read from it. * marks the point of attachment. Dansyl = CN(C)c1cccc2c(S(=O)(=O)*)cccc12

Key:
Gαo-GTPγS [1] = target: T1, Gαo-GTPγS (Drosophila melanogaster, UniProt P16378); assay: biochemical; type: binding; set-up: His6 (hexahistidine); made in house; host or cells: E. coli Top10
T1 sequence (P16378 other isoform, or with tags, fused parts or gaps): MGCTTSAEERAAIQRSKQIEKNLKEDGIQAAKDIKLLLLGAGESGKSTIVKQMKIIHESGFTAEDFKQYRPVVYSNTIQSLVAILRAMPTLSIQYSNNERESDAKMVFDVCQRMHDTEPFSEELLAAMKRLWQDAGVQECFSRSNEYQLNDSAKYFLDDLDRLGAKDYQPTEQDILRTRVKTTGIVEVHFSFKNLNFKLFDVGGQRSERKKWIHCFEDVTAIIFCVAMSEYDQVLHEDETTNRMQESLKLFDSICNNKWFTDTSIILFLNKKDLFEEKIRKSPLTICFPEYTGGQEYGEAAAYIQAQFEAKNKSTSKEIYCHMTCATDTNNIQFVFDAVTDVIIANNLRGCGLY
Experimental: Trp-to-dansyl FRET was measured as above.

Gαo-GDP = Gαo-GDP (Drosophila melanogaster, UniProt P16378); assay: biochemical
Chain of Gαo-GDP (P16378 other isoform, or with tags, fused parts or gaps): as above
Experimental: (§1) Hexahistidine-tagged Drosophila Gαo, Gαo[W132F; W212F] and Gαo[W132F; W259F] were purified following. In brief, Top10 bacteria transformed with the corresponding construct were grown in LB media until an OD600=0.6, expression was induced with 0.1 mM IPTG and cells further grown overnight at room temperature. Cells were harvested, resuspended in PBS supplemented with Complete Protease Inhibitor cocktail (Roche) and lysed with Lysozyme and sonication. Binding of the His6 tagged proteins to the Ni-NTA agarose was conducted in 10 mM Imidazole in PBS. After washing in 20 mM Imidazole/PBS the proteins were eluted in 200–250 mM Imidazole/PBS. […] The 36-mer GoLoco1 peptide and the GoLoco1 peptide with the dansyl (5-(dimethylamino)naphthalene-1-sulfonyl) group attached to the side chain of the N-terminal lysine were synthesized by Pepscan Presto BV. Non-dansylated GoLoco1 was dissolved in water, dansyl-GoLoco1 was dissolved at 10 mM in 50% propan-2-ol and stored at -20°C.
(§2) Fluorescence measurements were performed at RT using the Biotek SynergyMx plate reader. For all experiments, the Gαo subunits were pre-incubated with 1 mM GDP or GTPγS for >30 min at RT. For FRET measurements, preloaded Gαo was added in a final concentration of 10 μM to increasing concentration of dansylated GoLoco1 in HKB (50 mM Hepes-KOH, 100 mM KCl, 10 mM NaCl, 2 mM EGTA, 5 mM MgCl2, 1 mM DTT) and incubated for 30 min before measurement.

[2] = target: Hexahistidine-tagged Drosophila Gαo (class II isoform), wild type (Drosophila); assay: FRET or BRET; competition: Gαo preloaded with GDP and dansylated GoLoco1 at 1:1 (5–10 μM), pre-incubated 10 min, then increasing unlabelled GoLoco1 in HKB, 30 min, RT; Trp-to-dansyl FRET
[3] = target: Hexahistidine-tagged Drosophila Gαo (class II isoform), wild type (Drosophila); assay: FRET or BRET; competition: Gαo preloaded with GTPγS and dansylated GoLoco1 at 1:1 (5–10 μM), pre-incubated 10 min, then increasing unlabelled GoLoco1 in HKB, 30 min, RT; Trp-to-dansyl FRET
Gαo-GTPγS [4] = target: T1, Gαo-GTPγS; assay: biochemical
Experimental: as §1, §2

[5] = target: Hexahistidine-tagged Drosophila Gαo (class II isoform), wild type (Drosophila); assay: FRET or BRET; quenching of the donor: tryptophan fluorescence (excitation 280 nm, emission 330 nm) of 5 μM Gαo preloaded with GDP, 30 min with dansylated against unlabelled GoLoco1, RT; E = 1 - FD-A/FD
[6] = target: Hexahistidine-tagged Drosophila Gαo[W132F; W212F] (Drosophila); assay: as above
[7] = target: Hexahistidine-tagged Drosophila Gαo[W132F; W259F] (Drosophila); assay: as above
[8] = target: Hexahistidine-tagged Drosophila Gαo[W132F; W259F] (Drosophila); assay: FRET or BRET; quenching of the donor: tryptophan fluorescence (excitation 280 nm, emission 330 nm) of 5 μM Gαo preloaded with GTPγS, 30 min with dansylated against unlabelled GoLoco1, RT; E = 1 - FD-A/FD
[9] = target: Hexahistidine-tagged Drosophila Gαo (class II isoform), wild type (Drosophila); assay: FRET or BRET; Trp-to-dansyl FRET (excitation 280 nm, emission 535 nm), saturation: 10 μM Gαo preloaded with 1 mM GTPγS added to increasing dansylated GoLoco1; HKB buffer, 30 min, RT
[10] = target: Hexahistidine-tagged Drosophila Gαo (class II isoform), wild type (Drosophila); assay: FRET or BRET; Trp-to-dansyl FRET (excitation 280 nm, emission 535 nm), saturation: 10 μM Gαo preloaded with 1 mM GDP added to increasing dansylated GoLoco1; HKB buffer (50 mM Hepes-KOH, 100 mM KCl, 10 mM NaCl, 2 mM EGTA, 5 mM MgCl2, 1 mM DTT), 30 min, RT

## CC[C@H](C)[C@H](NC(=O)[C@H](CO)NC(=O)[C@H](CS)NC(=O)[C@H](CCCNC(=N)N)NC(=O)[C@H](CCC(N)=O)NC(=O)[C@H](CC(=O)O)NC(=O)[C@H](CC(=O)O)NC(=O)[C@H](CCSC)NC(=O)[C@H](CCCNC(=N)N)NC(=O)[C@H](CCCCN)NC(=O)[C@H](CO)NC(=O)[C@H](CCC(N)=O)NC(=O)[C@H](CO)NC(=O)[C@H](CCCNC(=N)N)NC(=O)[C@H](CO)NC(=O)[C@H](CC(C)C)NC(=O)[C@H](CCSC)NC(=O)[C@H](CCC(=O)O)NC(=O)[C@H](Cc1ccccc1)NC(=O)[C@H](Cc1ccccc1)NC(=O)[C@H](CC(=O)O)NC(=O)[C@H](CC(=O)O)NC(=O)[C@H](CC(=O)O)NC(=O)[C@@H](N)CCCCNS(=O)(=O)c1cccc2c(N(C)C)cccc12)C(=O)N[C@@H](CCCCN)C(=O)N[C@H](C(=O)N[C@@H](CC(N)=O)C(=O)N1CCC[C@H]1C(=O)N[C@@H](CO)C(=O)NCC(=O)N[C@@H](C)C(=O)N1CCC[C@H]1C(=O)N[C@@H](C)C(=O)N[C@H](C(=O)N[C@@H](C)C(=O)N[C@H](C(=O)O)[C@@H](C)O)C(C)C)C(C)C [dGoLoco1] (H-K(Dansyl)DDDFFEMLSRSQSKRMDDQRCSIKVNPSGAPAVAT-OH)
Gαo-GTPγS [1]
  Kd: 2.1 µM
Gαo-GDP
  Kd: 4.6 µM

## GoLoco1 peptide of Drosophila Pins (unlabelled)
[2]
  Ki: 17.6 µM
[3]
  Ki: 10.6 µM

## KDDDFFEMLSRSQSKRMDDQRCSIKVNPSGAPAVAT [GoLoco1]
Gαo-GTPγS [4]
  Ki: 10.6 µM
Gαo-GDP
  Ki: 17.6 µM

## dansylated GoLoco1 peptide of Drosophila Pins
[5]
  FRET efficiency E: 0.474
[6]
  FRET efficiency E: 0.478
[7]
  FRET efficiency E: 0.544
[8]
  FRET efficiency E: 0.127
[9]
  Kd: 2.1 µM
[10]
  Kd: 4.6 µM
